What follows are substances tested on HEK293T (assay: median enrichment of reporter reads in eGFP-reduced (low/intermediate) vs eGFP-high sorted cells (eGFP-extension fusion abundance) (ratio); higher = stronger loss of eGFP-fusion protein abundance (more destabilising extension)).
In the case of “SGLLPLGPLTLSGWWTTKYNPVYNLKIYFTFVLLYLFIKG [SMAD4]”, the median enrichment is reported as 7.74. Substance LLRG [ARPP19] has a median enrichment of 4.64. RKLLP [NOX4] was tested, and the median enrichment was 0.64. Substance CTKAWA [IFNGR2] has a median enrichment of 0.778. “WAPSCLSRDPGTPPARTLGLSLPRAPPASVDWRVVLPLPRNQPQPR [SLC9A3R2]” gave a median enrichment of 18.7. “RLVIFFQRVMQSGYKRIFCLPYKGILPAAKFKQ [ARMC10]” showed a median enrichment of 14.7. Work on LRSLI [BAMBI] yielded a median enrichment of 7.1. In the case of SPF [SDHD], the median enrichment is reported as 0.337. For “QESKSTLPSHHHGPTGYPEQLHTLLEVSRSLPA [ADAMTSL1]”, the median enrichment was 2.98. Substance WSSSSNSICKEHFSLKTCIWIIIITTF [CCDC148] has a median enrichment of 3.42. EIKCTRSQ [NLRC4] gave a median enrichment of 9.53. QPWGWTVDPTSLREGGMAGCEDNSS [POLR3H] was tested, and the median enrichment was 0.421. “RQEGRPHCFSHPFPLLPMGRGPGCRKSSYLQELHHNLEGSSWSCEFSLYSVTIPDHLIKMLPPSIGFIELVTS [NME1]” showed a median enrichment of 9.63. For SSNLF [ADPRM], the median enrichment was 0.584. Work on QGSYGIPPRSARA [CDKN2A] yielded a median enrichment of 5.31. In the case of “LPCSSTVTTRQALLSAEGVIPGPPVCVIVTMPCRDILEATHGWRNPEPPPQPTWLFVDSRRQGCAWLLTCC [PFKFB4]”, the median enrichment is reported as 11.1. With CSFQRNMVSGQKDC [ZNF831] the median enrichment was 0.731. With SYLQCPCCVALQMRPLQTRPA [WDCP] the median enrichment was 8.46. For LISHSYLLKYI [ELAVL4], the median enrichment was 7.49. “ELQQKNLHCYIRYRYKMQKKHQEFCLLFYFIFKLQEVFSSWDNLVLLLSIICQFLCILNKINIELK [WDR49]” gave a median enrichment of 2.64. “SGPPFGHHQVPKVPQEASTLHARPASISLSFPVWPSFEGHVRWRSQARQTLTRGLSSKRALGWTTENISSRGSYNKNTYLPAL [PLPP7]” gave a median enrichment of 3.53. SGAGPGPRGGTSINSVAKLE [MYL7] gave a median enrichment of 0.743. For RTQDSE [CD3G], the median enrichment was 0.492. Work on YDGHISFIGE [CFLAR] yielded a median enrichment of 0.753. For “WMVLSAGSPLRSGQRKMGGCSSPPQHNDQPPS [NLRP12]”, the median enrichment was 13.1. KKNVEAIGLLGG [Degron KLHDC2] gave a median enrichment of 5.08. KKKKK [Lys05] showed a median enrichment of 0.46. RGK [PKP2] showed a median enrichment of 0.513. EKSYMAKRSRSKFRSHSQGNQYLPI [SNX24] was tested, and the median enrichment was 1.3. With SEELPGRTQDAEPRSLPG [ACAN] the median enrichment was 0.794. Work on EMALSPPRSWGQ [Degron APPBP2] yielded a median enrichment of 10.9. In the case of “SDARQFLDLGGLKRPPSCLLSFSVSSFLLVFFILFSFHQPSCILALQRDRDRSSAQGFSLPLFIMGGGYHPPSQSCEESGTSF [NOTCH3]”, the median enrichment is reported as 5.68. “YEGPSRRATQATVPVPAFPTPAVAPPHPLPLFVPFDERLFTGVGWRDGLEGAQSIRLQGPSWEK” gave a median enrichment of 2.44. WKLYMLRDVLLSGSIELPLSVNFKV [PDCD10] gave a median enrichment of 11. Work on “RGPELARPRTPNTIFAIQPQAMGTAFLPRGPGRPQRLLQARTLVHYTPCLGAEILQQKDAIFFVSFFSIFFSKESIFQYVECV [NFYC]” yielded a median enrichment of 3.94. LLLPLGFTSQTQPLEQPDPAE [CHAT] was tested, and the median enrichment was 6.49. In the case of KSTSSHETE [UNC5D], the median enrichment is reported as 1.07. Substance “LLLPADLWIRSLLTGCVTLGPELPLSGPQRPYEGPLLQEHPHDIAFGGAPVACRIACGLCNLLRFKTDGHMCQWGSLSPGPKK [JAK3]” has a median enrichment of 5.04. In the case of SAPPAACPACPACLSRHTGFRTC [DIS3L2], the median enrichment is reported as 16.6. For LQPTWSTRAGP [KRT36], the median enrichment was 0.897. “EFILERNSTNVKNVTKLLSISLTLLHIRKFILEKNPTDVKNVAKPLSTPLNLLHIRDFILERNPTDVNNVVKLFTYPHTLLHI [ZNF626]” showed a median enrichment of 2.95. CGIQRERGSGRGGPEWGRLEGYRPAWMT [SNCG] was tested, and the median enrichment was 3.44. Substance QLYSTKIFKDWFLF [DIS3] has a median enrichment of 11.1. Work on SVCAGDQINRLGCAK [NOSIP] yielded a median enrichment of 1.17. “LVLDKREAWKTPHASYHTSVLWLLSFEVLYCNLLICMECAYFLKGY [MED6]” was tested, and the median enrichment was 7.75. Substance “QWRGEGRLGALGGWEMLASKRLTGREAGTCPQHKRQVYPGSL [BTBD18]” has a median enrichment of 8.86. “NGPPLPPSPDAEMVMGSWRVGSEMKGTPQWAAGPIFPKPCHYLCEGGQVAEGSGCRLLYPLCLKHPPHRALVFTRFVLDSLNG [SLC13A5]” gave a median enrichment of 4.2. For “WHLTNHSTEHTFIFVSAFVLKLSKYIHLCNRNL [ADGRV1]”, the median enrichment was 13.2. “SPYPVPRCTNRWGPAPFLPGPHGPLSQEPRPLTSCPLEMVQHSGIYHPHLGPLQPPIKG [MYH14]” was tested, and the median enrichment was 5.6. Work on REA [NPSR1] yielded a median enrichment of 4.09. For WRLRASRRDLMPRGGGCL [CTU1], the median enrichment was 5.49. SIFFYQEG [PTEN] gave a median enrichment of 2.76. Work on “YLTLHLSSGCQGRRRSQQAPLFCSLSPEAEHMFSEKLLLRTF [RAF1]” yielded a median enrichment of 6.79. YGSRRILTHRKGAHGTQVKEVLLARYGGSRL [SMYD4] showed a median enrichment of 5.15. In the case of QGHACAPMGFLFSFFFFLVGGVGGLD [PRKACA], the median enrichment is reported as 5.49. LKKKKKKALAFSCLFC [PCDH17] gave a median enrichment of 25.4. With SHVGQIKRQLQK [CTSO] the median enrichment was 0.527. RPSTKGPPSWCSITSFLKGISFFTTLS [FANCE] showed a median enrichment of 13.8. “CDAQTASSATKRPENSRFTTFLSHVEAFPFNRGPSSEPRPISAIFFS [LMBR1]” showed a median enrichment of 12. With YFSPFFSPEMKTTSPLSLWKQSSVLHTTRC [ARL1] the median enrichment was 11.4. For LGP [COLQ], the median enrichment was 0.326. In the case of KKKKKKKK [Lys08], the median enrichment is reported as 1.65. In the case of “LPLKTVPLRDPKTLGIDTWASGRAQPWAGGLLRTQRCAWNHS [SLC4A3]”, the median enrichment is reported as 31. SLCFV [E2F3] showed a median enrichment of 2.42. Substance GGGGGG [Gly06] has a median enrichment of 2.43. “RRRRRRGRAAGGTAQATQGRPLRPGGQGGRPASGDRLPPGLWQDVPSEGYFEEPPGPGDREAPVSSMNALPRTQARASGVHSE [MSANTD1]” was tested, and the median enrichment was 0.682. Work on “QVTGNLSHLPFSSGTTLHKCVPRGSPFLSSSTENAARSSYPSSRGPAAMLYAPEGTLVPRKERKKRDGLWLHFLGP [VAMP8]” yielded a median enrichment of 7.27. “QGLEGQEVGVRSPYSACCPGCAAQLDSASQHLPPRSFLLFIPIFTPKTSLSLFTPPKPLSHAGPLKPQLPTILREHPLPSLPF [GSTM2]” gave a median enrichment of 5.62. LATWRNCLCTGCGPTLSS [MED12] showed a median enrichment of 15.1. “RDALAMAQEKPARKNQTDFHTKEEASIFFFLFFIGVVTKPFRLLLFKI [QRICH1]” gave a median enrichment of 33. In the case of YTKYLKMGIILI [ST8SIA6], the median enrichment is reported as 10.3. SEVIFL [CES5A] was tested, and the median enrichment was 1.39. STRRPSPQKP [ERBB2] was tested, and the median enrichment was 0.591. Substance RHSELLAVEEHHAYL [YTHDC2] has a median enrichment of 0.354. RFPSPLLLLLLDGNHSLDHACSL [TUBG2] showed a median enrichment of 2.18. Work on SASAEVTEKPYDDVPDFSVGRSRPVA [TCF25] yielded a median enrichment of 0.734. In the case of WGPGAFPRSSPSSI [RNASEK], the median enrichment is reported as 0.405. With “CGILRWLACWAWGLLTDSMEQGWAVCAHAQHALRGGGGGRGFLMSVQELKVSGVLPRICPTPHDKTELCNKQYQFILAVGFCF [WDR6]” the median enrichment was 9.47. “YSSSPVDEHLGWKFCSHTQDTAQDPAGVFFSVVRCTIGLMSIVLEDERKLRRTRSTDPDVIKHFVVSLSHR [BICD1]” gave a median enrichment of 3.59. Work on “SQGGTTQAPWAPRERGGIRAGQPPGCRCQEQSQAQVAPAACPVPFPKAPLHIEGRKREFRQLHSPFTPNPVFYSPEKRRESHE [STARD8]” yielded a median enrichment of 1.09. Substance YRDLQRPGQK [PEG10] has a median enrichment of 12. YDGR [ZNF772] gave a median enrichment of 0.299. In the case of III [Ile03], the median enrichment is reported as 3.74.

— the supplement of paper PMC11502859
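Note: lentiviral eGFP-IRES-mCherry reporter pool sorted by FACS 96 h post-transduction, gated on mCherry-high cells, Illumina read counts normalized per million, median across four biological replicates.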
